Where no end group is shown, it is not given here. [ ]: non-standard residue; d: D form. The star is where a group is joined. FITC = O=C1OC2(c3ccc(O)cc3Oc3cc(O)ccc32)c2ccc(NC(=S)*)cc21; pT = C[C@@H](OP(=O)(O)O)[C@H](N)C(=O)O; Ahx = NCCCCCC(=O)O

As usually defined, the Kd is a measure of binding affinity in units of concentration. Read a high Kd as a looser complex.

Holding throughout (test): FP
Test [1] addresses T1, FITC-GPLATSpTPKNG (synthetic construct).
T1 chain: {FITC}-GPLATS[pT]PKNG

Test [2] deals with PBD1 (residues 345–603) F559K (human, UniProt P53350 345-603, F559K).
Test [3] has as its target PBD1 (residues 345–603) F559R (human, UniProt P53350 345-603, F559R).
Test [4] concerns the target PBD1 (residues 345–603) F559E (human, UniProt P53350 345-603, F559E).
The target in test [5] is PBD1 (residues 345–603) F559D (human, UniProt P53350 345-603, F559D).
Test [6] addresses Plk1 polo-box domain, PBD1 (residues 345–603) WT (human, UniProt P53350 345-603).
Test [7] deals with T2, FITC-GPMQTSpTPKNG (synthetic construct).
T2 chain: {FITC}-GPMQTS[pT]PKNG

Chain of PBD1 (residues 345–603) F559R (P53350 345-603 F559R): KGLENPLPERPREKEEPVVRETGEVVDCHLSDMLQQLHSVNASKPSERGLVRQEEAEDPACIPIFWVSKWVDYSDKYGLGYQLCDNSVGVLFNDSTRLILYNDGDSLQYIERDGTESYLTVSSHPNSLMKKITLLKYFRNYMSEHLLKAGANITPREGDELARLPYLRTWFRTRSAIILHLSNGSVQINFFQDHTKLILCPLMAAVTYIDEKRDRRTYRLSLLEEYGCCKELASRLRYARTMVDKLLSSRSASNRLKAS
Chain of PBD1 (residues 345–603) F559K (P53350 345-603 F559K): as the sequence (P53350 345-603 F559R) above, with R215K counted along it
Chain of PBD1 (residues 345–603) F559E (P53350 345-603 F559E): as the sequence (P53350 345-603 F559R) above, with R215E counted along it
Chain of PBD1 (residues 345–603) F559D (P53350 345-603 F559D): as the sequence (P53350 345-603 F559R) above, with R215D counted along it
Chain of Plk1 polo-box domain, PBD1 (residues 345–603) WT (P53350 345-603): as the sequence (P53350 345-603 F559R) above, with R215F counted along it

B1: MBP-PBD3 A612F (protein)
chain: TPPNPARSLFAKVTKSLFGRKKKSKNHAQERDEVSGLVSGLMRTSVGHQDARPEAPAASGPAPVSLVETAPEDSSPRGTLASSGDGFEEGLTVATVVESALCALRNCIAFMPPAEQNPAPLAQPEPLVWVSKWVDYSNKFGFGYQLSSRRVAVLFNDGTHMALSANRKTVHYNPTSTKHFSFSVGAVPRALQPQLGILRYFASYMEQHLMKGGDLPSVEEVEVPAPPLLLQWVKTDQALLMLFSDGTVQVNFYGDHTKLILSGWEPLLVTFVARNRSFCTYLASHLRQLGCSPDLRQRLRYALRLLRDRSPA
As for B1, in test [1], the affinity, expressed as Kd, was 85.4 nM. That is a double-digit nanomolar value.

B2: MBP-PBD3 (protein)
chain: TPPNPARSLFAKVTKSLFGRKKKSKNHAQERDEVSGLVSGLMRTSVGHQDARPEAPAASGPAPVSLVETAPEDSSPRGTLASSGDGFEEGLTVATVVESALCALRNCIAFMPPAEQNPAPLAQPEPLVWVSKWVDYSNKFGFGYQLSSRRVAVLFNDGTHMALSANRKTVHYNPTSTKHFSFSVGAVPRALQPQLGILRYFASYMEQHLMKGGDLPSVEEVEVPAPPLLLQWVKTDQALLMLFSDGTVQVNFYGDHTKLILSGWEPLLVTFVARNRSACTYLASHLRQLGCSPDLRQRLRYALRLLRDRSPA
For B2, the Kd in test [1] is 62.4 nM.

B3: FITC-Ahx-DPPLHSpTAI-NH2 (peptide)
peptide: {FITC-Ahx}-DPPLHS[pT]AI-NH2
SMILES: CC[C@H](C)[C@H](NC(=O)[C@H](C)NC(=O)[C@@H](NC(=O)[C@H](CO)NC(=O)[C@H](Cc1c[nH]cn1)NC(=O)[C@H](CC(C)C)NC(=O)[C@@H]1CCCN1C(=O)[C@@H]1CCCN1C(=O)[C@H](CC(=O)O)NC(=O)CCCCCNC(=S)Nc1ccc2c(c1)C(=O)OC21c2ccc(O)cc2Oc2cc(O)ccc21)[C@@H](C)OP(=O)(O)O)C(N)=O
For B3, the Kd in test [2] is 704 nM; in test [3], 460 nM; in test [4], 124 nM; in test [5], 28.1 nM; in test [6], 16.8 nM.

B4: PBD2 S652F (protein)
chain: HLSSPAKNFFKKAAAALFGGKKDKARYIDTHNRVSKEDEDIYKLRHDLKKTSITQQPSKHRTDEELQPPTTTVARSGTPAVENKQQIGDAIRMIVRGTLGSCSSSSECLEDSTMGSVADTVARVLRGCLENMPEADCIPKEQLSTSFQWVTKWVDYSNKYGFGYQLSDHTVGVLFNNGAHMSLLPDKKTVHYYAELGQCSVFPATDAPEQFISQVTVLKYFSHYMEENLMDGGDLPSVTDIRRPRLYLLQWLKSDKALMMLFNDGTFQVNFYHDHTKIIICSQNEEYLLTYINEDRIFTTFRLTTLLMSGCSSELKNRMEYALNMLLQRCN
In test [7], B4 registered a Kd of 62.7 nM.

B5: PBD2 (protein)
chain: HLSSPAKNFFKKAAAALFGGKKDKARYIDTHNRVSKEDEDIYKLRHDLKKTSITQQPSKHRTDEELQPPTTTVARSGTPAVENKQQIGDAIRMIVRGTLGSCSSSSECLEDSTMGSVADTVARVLRGCLENMPEADCIPKEQLSTSFQWVTKWVDYSNKYGFGYQLSDHTVGVLFNNGAHMSLLPDKKTVHYYAELGQCSVFPATDAPEQFISQVTVLKYFSHYMEENLMDGGDLPSVTDIRRPRLYLLQWLKSDKALMMLFNDGTFQVNFYHDHTKIIICSQNEEYLLTYINEDRISTTFRLTTLLMSGCSSELKNRMEYALNMLLQRCN
The molecule B5 displayed a Kd in test [7] of 80.2 nM. The Kd values of the last two molecules are within 1.5-fold of each other.

For the origin of these results see PMC10629583 (2023).
